Kd data for one molecule are collected here from paper PMC3607624 (Journal of molecular biology, 2011).

The target in one assay is F-actin (UniProt P68135 1-377). Description: co-sedimentation.
Assay [1] has as its target microtubules (tubulin heterodimer) (UniProt P02550 1-451). Description: co-sedimentation.

microtubules (tubulin heterodimer), sequence (P02550 whole entry, chain 1 of 2): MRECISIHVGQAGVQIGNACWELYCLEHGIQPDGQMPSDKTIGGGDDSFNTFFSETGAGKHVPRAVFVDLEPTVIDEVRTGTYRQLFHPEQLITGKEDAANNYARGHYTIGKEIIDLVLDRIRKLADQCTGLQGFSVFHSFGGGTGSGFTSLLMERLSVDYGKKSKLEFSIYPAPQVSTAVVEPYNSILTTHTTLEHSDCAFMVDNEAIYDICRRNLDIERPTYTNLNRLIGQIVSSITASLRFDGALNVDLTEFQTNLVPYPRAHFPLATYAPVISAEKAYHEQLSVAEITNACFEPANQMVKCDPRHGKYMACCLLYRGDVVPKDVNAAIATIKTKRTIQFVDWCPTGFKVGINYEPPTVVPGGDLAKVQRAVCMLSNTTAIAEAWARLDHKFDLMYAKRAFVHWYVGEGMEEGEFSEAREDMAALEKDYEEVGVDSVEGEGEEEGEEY
microtubules (tubulin heterodimer), sequence (P02554 whole entry, chain 2 of 2, further chain): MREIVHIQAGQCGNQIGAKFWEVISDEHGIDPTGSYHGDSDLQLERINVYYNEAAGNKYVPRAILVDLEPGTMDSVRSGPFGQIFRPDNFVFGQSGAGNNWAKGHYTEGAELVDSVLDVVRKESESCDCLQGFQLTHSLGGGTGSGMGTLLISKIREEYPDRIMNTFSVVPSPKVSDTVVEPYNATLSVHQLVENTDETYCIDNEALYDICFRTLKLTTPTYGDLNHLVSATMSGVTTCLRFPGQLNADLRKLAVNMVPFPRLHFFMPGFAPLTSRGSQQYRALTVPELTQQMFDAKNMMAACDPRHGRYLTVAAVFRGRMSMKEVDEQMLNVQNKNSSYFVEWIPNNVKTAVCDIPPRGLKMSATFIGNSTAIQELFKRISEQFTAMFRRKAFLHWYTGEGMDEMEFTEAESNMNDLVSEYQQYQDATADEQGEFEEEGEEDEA

B1: Dictyostelium myosin 7 N-terminal MyTH4/FERM domain (MF1) (domain or fragment, Dictyostelium discoideum, UniProt Q9U1M8 1085-1620, looked up)
chain: SATATGNNTPNSSSASASQSTNQVNPQPTVSVVELPQILNDEEISLYSFYDYANKNFNIEKLKQKDDIFSYQKSHIKSSLLVHSDAEQTKVAVEIFSKVLHYMNSNPLVSKKDPADFYSPVKFILTKGLAIESLRDEIYCQLIKQSTSNPIQDLNIRVWELIHFTCSTFPPTRKLIKYFAAYLKTTIQQSDVSKSVKDSAQASYFILQRFTLNGARKQVPSVTELESIKENRPIFVRITATDGSLKGLHIDSATTCQESSNDLSQRSRMRVNSKENGFTIIESFNGIERDIAPTDKLCDVLSKVENLQATLSSKIQVNFKFVFKKKLFFDNITNNVPTTSINVENEFYYHQLFNDLFNSNYCKDQDYQISIGSLKLQFESSDYTDEIRAWLPGNGRGKYFTTDIEKNRFDDFINKYKSHKGLSPEDAKKQMVQLLEKHPLANCSLVVCEHQSESLPYPKNFVLALNVNGINIYDPATSKMLESVKYSNQSQQNLKSDDKSVSIILENKSTLQAFTGDVQKLVSLIKEYSLYLRNNA
As for B1, the Kd (usually the equilibrium constant for the complex coming apart) was 13.7 ± 2.6 µM with F-actin and 1.7 ± 0.5 µM in assay [1].
